Measurements from article PMC12451656, “HMGB1 B‑Box Domain Associates Promote Protein–Polyelectrolyte Interactions” (The Journal of Physical Chemistry. B, 2025).

Molecular target: the molecule itself
Test: dynamic light scattering; as-prepared, unfiltered B-box, 30 μM, 25 mM Tris-HCl pH 6.9, 150 mM NaCl, 25 °C, backscattering mode; the retentate of the 30 kDa filter was also measured (Figure S6)

B1: HMGB1 B-box domain (domain or fragment, human)
chain: MARIDPNAPKRPPSAFFLFCSEYRPKIKGEHPGLSIGDVAKKLGEMWNNTAADDKQPYEKKAAKLKEKYEKDIAAYRAKGKPDAAKKGVV
notes: initiator methionine followed by the triplet alanine-arginine-isoleucine (ARI), inserted through the forward primer for better expression; HMGB1 (high mobility group box 1), human, B-box domain, cloned from the human HMGB1 cDNA; Numbers count on: the construct (Cys19 = Cys106 of full-length HMGB1; Trp46); By the reverse primer, the XhoI site adds LE between V176 and the SGS-His8 tag; The DLS …
- stoichiometry N: ~8
